# Results reported in the supplement of paper PMC7125110.
# ± gives the standard error. This sample holds only a part of the variants without activity.
# B1: glmS ribozyme (parent)
# chain: AUAAAAGCGCCAGAACUACAGAAAUGUAGUUGACGAGGAGGAGGUUUAUCGAAUUUUCGGCGGAUGCCUCCAAA
# Variants of: B1
# Assay: self-cleavage kobs at 10000 uM GlcN6P; higher = faster cleavage; RNA array
# Details: with glucosamine-6-phosphate
# Outline: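 kobs was derived by fitting per-tile medians to one- or two-exponential decays after normalising signals to baseline and to non-cleaving reference variants. Those signals came from barcoded ribozyme variants transcribed in situ by E. coli RNA polymerase on sequenced MiSeq chips, followed through a hybridised Cy3 probe at 37 °C and imaged over ~14 h. Glucosamine-6-phosphate (40 μM to 10 mM) in HEPES/KCl/Mg(OAc)2 buffer was flowed in. Weighted Michaelis–Menten fits across concentrations then gave kcat and KM.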
row,Variant,self-cleavage kobs at 10000 uM GlcN6P
1,AUAAAAGCGCCAGAACUACAGAAAUGUAGUAGACGAGGAGUUGGUUUAUCGAAUUUUCGGCAGAUGCCUCCAAA [U31A G41U A42U G62A],< 1e-05 s⁻¹
2,AUAAAAGCGCCAGAACUACAAAAAUGUAGUUGUCGAGGAGGAGGUUUAUCGAAUUUUCGGCGGAUGCCUCCAAA [G21A A33U],0.00012 ± 2.2e-05 s⁻¹
3,AUAAAAGCGCCAGAAUUACAGAAAUGUAGUUGACGAGGCGGAGGUUUAUCGAGUUUUCGGCGGAUGCCUCCAAA [C16U A39C A53G],0.00494 ± 0.0011 s⁻¹
4,AUAAAAGCGCCAGAACUACAGAAAUGUAGUAGACGAGGAGGAGGUGUAUCGAAUUGUCGGCGGAUGCCUCCAAA [U31A U46G U56G],0.00127 ± 0.00022 s⁻¹
5,AUAAAAGCGCCAGAACUACAGAAAUGUAGCUAACGAGGAGGAGGUUUAUCGAAUUUUCGGCGGAUACCUCCAAA [U30C G32A G66A],0.001 ± 0.00026 s⁻¹
6,AUAAAAGCGCCAGAACUACAGAAAUGUAGGUGACGAGGAGGAGGUCUAUCUAAUUUUCGGCGGAUGCCUCUAAA [U30G U46C G51U C71U],< 1e-05 s⁻¹
7,AUAAAAGCGCCAGAACUACAGAAAUGUAAUUGCCGAGGAGCAGGUUUAUCGAAUUUUCGGCGGAUGCCUUCAAA [G29A A33C G41C C70U],< 1e-05 s⁻¹
8,AUAAAAGCGCCAGAAUUACAGAAAUGUAGUGGACGAGGAGGAGGUUUAUCGAAUUUUCGGCGGAUGCCUACAAA [C16U U31G C70A],8.19e-05 ± 1.7e-05 s⁻¹
9,AUAAAAGCGCCAGAACUACAGAAAUGUAUUUGACGAGGAGGAGGUUUAUCGACUUUUCGGCGGAUACCUCCAAA [G29U A53C G66A],0.000258 ± 4.6e-05 s⁻¹
10,AUAAAAGCGCCAGAAUUACAGAAAUGUAGUUGACGAGGAGGAGGUCUAUCGAAUUUUGGGGGGAUGCCUCCAAA [C16U U46C C58G C61G],5.92e-05 ± 2.1e-05 s⁻¹
11,AUAAAAGCGCCAGAACUACAGAAAUGUAGUGGACGAGGAGGAGGUUUAUCGAAUUUUUGGCGGAUGCCUCCAAA [U31G C58U],9.69e-05 ± 1.1e-05 s⁻¹
12,AUAAAAGCGCCAGAACUACAGAAAUGUAGUCGACGAGGCUGAGGUUUAUCGAAUUUUCGUCGGAUGCCUCCAAA [U31C A39C G40U G60U],< 1e-05 s⁻¹
13,AUAAAAGCGCCAGAAUUACAGAAAUGUAGUUGACGAGGAGGUGGUUUAUCGCAUUUUCGGCGGAUGCCUCCAAA [C16U A42U A52C],< 1e-05 s⁻¹
14,AUAAAAGCGCCAGAACUACAGAAAUGUAGGUGACGAGGAGGAGGUUUAUCUAAUCUUCGGAGGAUGCCUCCAAA [U30G G51U U55C C61A],< 1e-05 s⁻¹
15,AUAAAAGCGCCAGAACUACAGAAAUGUAGGUGACGAGGAGGGGGUUUAUCGAAUUUUCGGCUGAUGCCUCCAAA [U30G A42G G62U],< 1e-05 s⁻¹
16,AUAAAAGCGCCAGAACUACAGAAAUGUAGUGGUCGAGGAGGAGGUUUAUCGAGUUUUCGGCGGAUGCCUCCAAA [U31G A33U A53G],2.81e-05 ± 1.3e-05 s⁻¹
17,AUAAAAGCGCCAGAACUACAGAAAUGUAGGUGACGAGGAGGAGGUUUAGCGAAUUUUCGGCGCAUGCCUCCAAA [U30G U49G G63C],< 1e-05 s⁻¹
18,AUAAAAGCGCCAGAACUACAGAAAUGUAGUGGACGAGGAGGAGGUUCAUCGAAUUUUCGGUGGAUGCCUCUAAA [U31G U47C C61U C71U],< 1e-05 s⁻¹
19,AUAAAAGCGCCAGAAUUACAGAAAUGUAGUUGACCAGGAGGAGGUUUAUCGAAUUUUAGGCGGAUGCCUCCAAA [C16U G35C C58A],< 1e-05 s⁻¹

row,Variant,self-cleavage kobs at 10000 uM GlcN6P
1,AUAAAAGCGCCAGAACUACAGAAAUGUAGUAGUCUAGUAGGAGGUUUAUCGAAUUUUCGGCGGAUGCCUCCAAA [U31A A33U G35U G38U],< 1e-05 s⁻¹
2,AUAAAAGCGCCAGAACUACAGAAAUGUAAUUGACGAGGAGGAGGUUUAUCGAAUUGUCGGCGGAUGACUCCAAA [G29A U56G C67A],0.000277 ± 5.7e-05 s⁻¹
3,AUAAAAGCGCCAGAACUACAGAAAUGUAAUUUACGAGGAGGAGGUUUAUAGAAUUUUCGGCGGAUGCGUCCAAA [G29A G32U C50A C68G],0.000193 ± 6e-05 s⁻¹
4,AUAAAAGCGCCAGAACUCCAGAAAUGUAGUUGCCGAGGAGGAGGUUUAUCGAAUUUUCGGCGGAUGCCUCCAAA [A18C A33C],0.000165 ± 4.4e-05 s⁻¹
5,AUAAAAGCGCCAGAACUACAGAAAUGUAGCUGACCAGGAGUAGGUUUAUCGAAUUUUCGGCGGAUGCCUCAAAA [U30C G35C G41U C71A],< 1e-05 s⁻¹
6,AUAAAAGCGCCAGAACUACAGAAAUGUAAUUGACGAGGAGGAGGUUUAGCGAAUUGUCGGCGGAUGCCUCCAAA [G29A U49G U56G],3.31e-05 ± 1.3e-05 s⁻¹
7,AUAAAAGCGCCAGAACUACAGAAAUGUACUUGACGAGGAGGAGAUUCAGCGAAUUUGCGCCGGAUGCUUGCAAA [G29C G44A U47C U49G U57G G60C C68U C70G],< 1e-05 s⁻¹
8,AUAAAAGCGCCAGAACUACAGAAAUGUACUUAACGAGGAGGAGGUUUAUCGAAAUUUCGGCGGAUGCCUCCAAA [G29C G32A U54A],0.000923 ± 0.00011 s⁻¹
9,AUAAAAGCGCCAGAACUACAGAAAUGUAAUUGACGAGGACGAGAUUUAUCGAAUUUUCGGCGGAUGCCUCCAAA [G29A G40C G44A],< 1e-05 s⁻¹
10,AUAAAAGCGCCAGAACUACAGAAAUGUAGAUUACGAGGAGGAGGUUUAUCGAAUUUUCGGCGGAUGACUCCAAA [U30A G32U C67A],0.000213 ± 6e-05 s⁻¹
11,AUAAAAGCGCCAGAACUACAGAAAUGUACUUGACGAGGAGGAGGAUUAUCGAAUUUUCGGCGGAUGCUUCCAAA [G29C U45A C68U],0.000376 ± 0.00011 s⁻¹
12,AUAAAAGCGCCAGAACUACAGAAAUGUACUUGACGAGGAGGAGGUGUAUCGAAUUUUCGGCGGAUGUCUCCAAA [G29C U46G C67U],0.000125 ± 3.3e-05 s⁻¹
13,AUAAAAGCGCCAGAACUACAGAAAUGUAGUCGACGAGGAGGAGGUUUAUCGAAUUUUUGGCGCAUGCCUCCAAA [U31C C58U G63C],< 1e-05 s⁻¹
14,AUAAAAGCGCCAGAACUACAGAAAUGUAAUAGACGAGGAGGAGGGUUAUCGAAUUUUCGGCGGAUGCCUCCAAA [G29A U31A U45G],0.000217 ± 4.5e-05 s⁻¹
15,AUAAAAGCGCCAGAAUUACAGAAAUGUAGUUGACGAGGAGGAGGUUUAUCGAAUGUUCGGCGGAUGCGUCCAAA [C16U U55G C68G],5.93e-05 ± 1.5e-05 s⁻¹
16,AUAAAAGCGCCAGAACUACAGAAAUGUAAUUGAGGAGGAGGAGGUUUAUCGAAUUUUCGGCGGAUGACUCCAAA [G29A C34G C67A],< 1e-05 s⁻¹
17,AUAAAAGCGCCAGAACUACAGAAAUGUAGUCGACGAGGAGGAGGUUUAUCGAAUUUUCGGCGGAUCCCUCCAAA [U31C G66C],8.11e-05 ± 1.3e-05 s⁻¹
18,AUAAAAGCGCCAGAACUACAGAACUGUACUUGACGAGGAGGAGGUUUAUCGAAUUUUCGGCGGAUGCCUCCAAA [A24C G29C],0.00129 ± 0.00026 s⁻¹
